Here are results for one molecule from EP1595946A2 (Sugen, Inc., dated 2005).

For this assay, the target named is T1, SULU1-coiled-coil2 GST fusion (Construct 1; amino acids 752-898) (human, UniProt Q5R4F3 752-898 (Pongo abelii entry)).
T1 construct: Immobilised bait in T7 phage display; also called SULU1 ccl; not shown: glutathione S-transferase (GST) of vector pGEX-4T; baits were made as C-terminal fusions to GST, expressed in E. coli
T1 sequence: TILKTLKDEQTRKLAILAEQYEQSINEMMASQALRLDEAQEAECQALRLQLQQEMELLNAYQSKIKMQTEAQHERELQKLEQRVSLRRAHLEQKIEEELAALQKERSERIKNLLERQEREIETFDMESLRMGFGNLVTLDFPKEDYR
Briefly: T7 phage display, H441 cDNA library, GST-fused bait; interactor listed.

B1: GEK2 coiled-coil domain displayed on T7 phage (677-820 of SEQ #26) (other)
chain: KESMKQKMEEHTQKKQLLDRDFVAKQKEDLELAMKRLTTDNRREICDKERECLMKKQELLRDREAALWEMEEHQLQERHQLVKQQLKDQYFLQRHELLRKHEKEREQMQRYNQRMIEQLKVRQQQEKARLPKIQRSEGKTRMAM
notes: also called GEK2 cc dom; GEK2 CC1; not shown: T7 phage coat protein of vector T7Select1-1b to which the cDNA fragment is fused
For the molecule B1, the binding result is on record as “binds”.
